Measured values from US7052705 (dated 2006).
Bridge positions count the residues as written; N and C are the ends. Ends that are not written are not given here.

T1: VEGFR-2 (human, UniProt P35968)
T1 chain: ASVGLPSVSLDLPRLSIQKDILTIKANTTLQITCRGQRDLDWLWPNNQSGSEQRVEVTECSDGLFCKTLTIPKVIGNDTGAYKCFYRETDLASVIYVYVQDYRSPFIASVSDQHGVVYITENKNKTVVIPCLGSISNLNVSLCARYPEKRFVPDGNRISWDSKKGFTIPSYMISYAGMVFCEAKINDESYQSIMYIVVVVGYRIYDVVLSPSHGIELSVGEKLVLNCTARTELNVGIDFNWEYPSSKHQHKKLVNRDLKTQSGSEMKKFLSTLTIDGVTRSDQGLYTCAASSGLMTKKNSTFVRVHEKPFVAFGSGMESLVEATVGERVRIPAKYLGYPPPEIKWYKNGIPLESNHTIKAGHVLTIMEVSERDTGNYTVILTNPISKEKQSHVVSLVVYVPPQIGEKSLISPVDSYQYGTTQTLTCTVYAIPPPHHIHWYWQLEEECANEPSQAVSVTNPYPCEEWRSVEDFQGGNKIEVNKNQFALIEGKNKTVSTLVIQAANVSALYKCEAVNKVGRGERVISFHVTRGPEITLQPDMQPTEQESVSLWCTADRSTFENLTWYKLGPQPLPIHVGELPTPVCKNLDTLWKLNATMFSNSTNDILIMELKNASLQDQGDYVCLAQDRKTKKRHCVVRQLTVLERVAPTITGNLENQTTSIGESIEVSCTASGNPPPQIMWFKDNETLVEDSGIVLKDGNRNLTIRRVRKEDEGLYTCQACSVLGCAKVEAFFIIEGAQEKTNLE

B1: VEGF165 (protein)
chain: APMAEGGGQNHHEVVKFMDVYQRSYCHPIETLVDIFQEYPDEIEYIFKPSCVPLMRCGGCCNDEGLECVPTEESNITMQIMRIKPHQGQHIGEMSFLQHNKCECRPKKDRARQENPCGPCSERRKHLFVQDPQTCKCSCKNTDSRCKARQLELNERTCRCDKPRR
B2: VEGF121 (protein)
chain: APMAEGGGQNHHEVVKFMDVYQRSYCHPIETLVDIFQEYPDEIEYIFKPSCVPLMRCGGCCNDEGLECVPTEESNITMQIMRIKPHQGQHIGEMSFLQHNKCECRPKKDRARQEKCDKPRR
B3: (cap)P6V8-3NCS1-7CC (peptide)
chain: CKGRGKRCREKQRPSDKPRR
modifications: disulfide 1-8; also: capped amino and carboxyl termini, chemistry of caps not given here

What follows are binders tested against T2, Neuropilin-1 (NP-1) (human, UniProt O14786) (assay: competition, COS-1).
T2 sequence (O14786 22-923): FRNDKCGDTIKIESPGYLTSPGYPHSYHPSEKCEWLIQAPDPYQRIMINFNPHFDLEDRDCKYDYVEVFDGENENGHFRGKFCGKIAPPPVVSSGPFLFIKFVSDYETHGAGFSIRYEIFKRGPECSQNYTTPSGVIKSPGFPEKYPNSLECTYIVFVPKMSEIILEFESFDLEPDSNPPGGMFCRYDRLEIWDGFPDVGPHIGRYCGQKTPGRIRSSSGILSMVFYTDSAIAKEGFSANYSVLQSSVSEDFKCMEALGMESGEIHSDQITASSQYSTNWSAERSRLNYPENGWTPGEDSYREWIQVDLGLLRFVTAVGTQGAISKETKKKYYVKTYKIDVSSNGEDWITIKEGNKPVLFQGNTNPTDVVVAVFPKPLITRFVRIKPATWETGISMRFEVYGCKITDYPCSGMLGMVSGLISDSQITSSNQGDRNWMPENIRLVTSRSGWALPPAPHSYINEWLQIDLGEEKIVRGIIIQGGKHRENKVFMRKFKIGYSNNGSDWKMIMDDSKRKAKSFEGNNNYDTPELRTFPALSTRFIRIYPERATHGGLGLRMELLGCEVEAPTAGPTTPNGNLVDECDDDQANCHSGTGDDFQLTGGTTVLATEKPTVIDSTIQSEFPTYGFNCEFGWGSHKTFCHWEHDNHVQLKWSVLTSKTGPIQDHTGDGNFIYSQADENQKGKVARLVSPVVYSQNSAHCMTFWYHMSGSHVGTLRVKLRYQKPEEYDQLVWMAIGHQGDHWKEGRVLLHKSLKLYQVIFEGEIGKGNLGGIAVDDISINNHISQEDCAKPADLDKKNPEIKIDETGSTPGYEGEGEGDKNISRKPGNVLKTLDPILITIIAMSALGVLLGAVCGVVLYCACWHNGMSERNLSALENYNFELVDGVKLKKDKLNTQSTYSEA

Row | Binder | IC50
1 | B1 | 0.582 nM

The binders below were run against T3, VEGFR-2/NP-1 co-expressed (human, UniProt P35968) (assay: competition, COS-1).

Row | Binder | binding result
2 | B2 | no binding
3 | RRPKGRGKRAAAKQRPSDKPRR [AS-3] | no binding

What follows are binders tested against T2, Neuropilin-1 (NP-1) (assay: other, radioligand saturation COS-1).

Row | Binder | Kd
4 | B1 | 2.09 nM

The binders below were run against T2, Neuropilin-1 (NP-1) (assay: competition, Balb/c).

Row | Binder | IC50
5 | B1 | 0.158 nM
6 | KGRGKRRREKQRPCDKPRR [P6V8-3N] | 254 nM
7 | RRPKGRGKRRREAAAPSDKPRR [AS-4] | 17.8 nM

Molecular target: T1, VEGFR-2
Test: competition, COS-1 cells, 4C

Row | Binder | IC50
8 | B2 | 0.312 nM

Molecular target: T2, Neuropilin-1 (NP-1)
Test: competition, COS-1
Remark: another data set of the same source

Row | Binder | binding result
9 | B2 | no binding
10 | RPCDKPRR [V8] | no binding

These binders were tested against T3, VEGFR-2/NP-1 co-expressed (assay: competition, 125I-VEGF165).

Row | Binder | IC50
11 | RRPKGRGKRRREKQRP [P6] | 12200 nM
12 | RRPKGRGKRRREKQRPDAVPRR [P6P7] | 1170 nM

Molecular target: T1, VEGFR-2
Test: competition, COS-1

Row | Binder | binding result
13 | KGRGKRRRECQRPSCKPRR (disulfide 10-15) [P6V8-3NCSC13C18] | no binding
14 | AGRGARAAEKQAPSDKPRR [P6V8-3NCSA1,5,7,8,12] | no binding
15 | CAGRGKRCREKQRPSDKPRR (disulfide 1-8) [P6V8-3NCS1-7CCA1] | no binding
16 | B3 | no binding
17 | CAGRGARCREKQRPSDKPRR (disulfide 1-8) [P6V8-3NCS1-7CCA1A5] | no binding
18 | KGAGARRREKQRPSDKPRR [P6V8-3NCSA3A5] | no binding
19 | RRPKGRGKRRREKQRAAAKPRR [AS-4A] | no binding
20 | KGAGKARREKQRPSDKPRR [P6V8-3NCSA3A6] | no binding
21 | RRPAAAGKRRREKQRPSDKPRR [AS-1] | no binding
22 | RRPKGRGKRRREAAAPSDKPRR [AS-4] | no binding
23 | KGRGKRRREKQRPSDKPRR (also: (cap), group not given here) [(cap)P6V8-3NCS] | no binding
24 | AGRGKARREKQRPSDKPRR [P6V8-3NCSA1A6] | no binding
25 | PKRSRRKGQPRPRGRREKRDRK [RAND1] | no binding
26 | RPCDKPRR [V8] | no binding
27 | RREKQRPCDKPRR [P6V8-9N] | no binding
28 | KGRGKRAAEAQAPSDKPRR [P6V8-3NCSA7,8,10,12] | no binding
29 | RPSDKPRR [V8CS] | no binding
30 | CKGRGARCREKQRPSDKPRR (disulfide 1-8) [P6V8-3NCS1-7CCA5] | no binding
31 | AGRGARRREKQRPSDKPRR [P6V8-3NCSA1A5] | no binding

The binders below were run against T3, VEGFR-2/NP-1 co-expressed (assay: competition, Balb/c).
Target sequence in this assay (chain, as listed by the source, chain 2 of 2, one chain of several): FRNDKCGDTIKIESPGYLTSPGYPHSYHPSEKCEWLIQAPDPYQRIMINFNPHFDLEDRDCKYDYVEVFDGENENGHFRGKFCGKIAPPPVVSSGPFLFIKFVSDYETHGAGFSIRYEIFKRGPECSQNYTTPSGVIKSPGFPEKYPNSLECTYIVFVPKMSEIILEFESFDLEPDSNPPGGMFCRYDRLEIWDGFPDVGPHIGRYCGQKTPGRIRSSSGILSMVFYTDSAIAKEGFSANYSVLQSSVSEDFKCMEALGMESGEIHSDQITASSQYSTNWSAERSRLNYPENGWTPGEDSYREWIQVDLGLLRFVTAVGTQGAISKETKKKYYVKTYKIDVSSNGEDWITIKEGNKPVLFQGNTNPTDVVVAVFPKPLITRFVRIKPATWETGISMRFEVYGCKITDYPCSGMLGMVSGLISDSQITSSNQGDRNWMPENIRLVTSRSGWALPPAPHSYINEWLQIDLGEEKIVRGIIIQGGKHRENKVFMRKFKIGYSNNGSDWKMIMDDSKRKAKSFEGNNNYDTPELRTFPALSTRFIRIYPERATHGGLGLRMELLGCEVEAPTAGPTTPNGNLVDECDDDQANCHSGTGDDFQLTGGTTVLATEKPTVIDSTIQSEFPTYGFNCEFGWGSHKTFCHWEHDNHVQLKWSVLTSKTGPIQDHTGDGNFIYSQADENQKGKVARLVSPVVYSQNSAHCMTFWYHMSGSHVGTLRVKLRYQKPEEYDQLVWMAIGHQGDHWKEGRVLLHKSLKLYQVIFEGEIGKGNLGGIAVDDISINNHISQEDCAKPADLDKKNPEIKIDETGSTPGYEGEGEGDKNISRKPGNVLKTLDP

Row | Binder | IC50
32 | RRPKGRGKRRREAAAPSDKPRR [AS-4] | 300 nM
